In article PMC9363500 (Communications Biology, 2022):

B3: 6×His-FAK KFL_(776–841) (domain or fragment, human, UniProt Q05397 776-841, looked up)
chain: {6×His}-HRPQEIAMWQPNVEDSTVLDLRGIGQVLPTHLMEERLIRQQQEMEEDQRWLEKEERFLKPDVRLSR
modifications: also: fluorescent label on His-tag
notes: source: E. coli, purified (nickel column, Superdex 75 SEC); not shown: His6, N-terminal, kept

Experiments:
[1] = target: 6×His–PYK2 KFL_(728–839) (human) (UniProt Q14289); experiment: ITC; 25 °C; 20 mM HEPES pH 7.5, 150 mM NaCl, 2 mM DTT, 1 mM EGTA; CaM (300 µM) injected into PYK2 KFL728–839 (30 µM)
[2] = target: 6×His–PYK2 KFL_(728–839) (human) (UniProt Q14289); experiment: ITC; 25 °C; 20 mM HEPES pH 7.5, 150 mM NaCl, 2 mM DTT, 5 mM Ca2+; CaM (300 µM) injected into KFL constructs in the cell (30 or 50 µM), or FERM domains (500 µM) injected into CaM (50 µM)
[3] = target: T1, 6×His-FAK KFL_(776–841) (human, UniProt Q05397 776-841, fluorescent label from the NanoTemper His-tag labelling kit (MST, fluorescence anisotropy)); experiment: FP
T1 chain: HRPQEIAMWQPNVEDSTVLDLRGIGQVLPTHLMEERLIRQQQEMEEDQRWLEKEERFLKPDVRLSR

[4] = target: B3; experiment: fluorescence polarisation; fluorescence anisotropy; labelled 6×His protein at 50 nM, unlabelled MBP-fused protein serially diluted; 20 mM HEPES, 200 mM NaCl, 1 mM DTT, pH 6.5; settings: both partners purified
[5] = target: T2, FAK KFL 776-841 (Homo sapiens, UniProt Q05397); experiment: MST (self-association)
T2 chain: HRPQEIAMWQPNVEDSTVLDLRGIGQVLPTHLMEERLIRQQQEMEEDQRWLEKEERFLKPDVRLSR

[6] = target: the molecule itself; experiment: SEC-MALS; Superdex 200; 20 mM HEPES, 200 mM NaCl, 2 mM DTT, pH 6.5 and 7.5; DAWN MALS detector
[7] = target: the molecule itself; experiment: MST; labelled 6×His protein at 50 nM, unlabelled protein serially diluted; 20 mM HEPES, 200 mM NaCl, 1 mM DTT, pH 6.5; dimer to monomers

6×His–CaM (recombinant calmodulin) (from UniProt P0DP23 1-149) (natural protein)
stoichiometry N [1]: 1
stoichiometry N [2]: 1

B1: MBP–FAK KFL_(776–841) (domain or fragment, human, UniProt Q05397 776-841, looked up)
chain: HRPQEIAMWQPNVEDSTVLDLRGIGQVLPTHLMEERLIRQQQEMEEDQRWLEKEERFLKPDVRLSR
notes: not shown: MBP, N-terminal, kept
Kd [3]: 730 nM
binding result [4]: binds

B2: FAK KFL 776-841 (protein)
chain: HRPQEIAMWQPNVEDSTVLDLRGIGQVLPTHLMEERLIRQQQEMEEDQRWLEKEERFLKPDVRLSR
modifications: not fully specified
Kd [5]: 848 nM

B3
stoichiometry N [6]: 2
Kd [7]: ~800 nM
